For this assay, the target named is MRAS wild type, recombinant from E. coli (human) (UniProt O14807). As to the kind of experiment: ITC. In general terms: In ITC the heat of successive injections is recorded.

pKd: −log10 of the molar value.

The term pKd denotes the negative decadic logarithm of the Kd, by convention in mol/L. Turning to “BRAF-RBD (from UniProt P15056 150-233) (domain or fragment)”, the pKd is 5.08.

The record behind these values is PMC11733253.
